From the DeepSol protein solubility set

experiment: soluble on expression in E. coli; label from the status in PepcDB or PDB records

| Sequence | soluble on expression in E. coli |
| --- | --- |
| MGSDKIHHHHHHMSNENIVLARNTERAPKHHLAAQTVAFSHYNHLSAQLPIEPTSGQLVEGGIRAQATQCLKNIQAVVESINHVMSDIVRMTIFVKDMRDAAAVEEVYAAFFTHYYPAKTVVAVADLPLGASVQMEALVSNGEGTIPNAPQAGDLIKLTNQTVQAPIDALASQTVAFSHYNNLSAQLPIDPQTGRVVAGCVKTQTKQCLKNIKAILTSIDVPFDDIVKINIYLKDLSKLEAVNQVHAAFFPDSGIARTVNYMPARTVIAVADLPMGAAVQVEAVVSHGDGTPPQAIEDRHGLIIEANNTEHAPKCPFSTQTVAFSHYNHLSAQLPLDPKTNALVAGGIKEQTTQCLENIKAIIESVDHSLADLVKVNIFVKEIEELAAVDDVYQTYFPEGTPARRVIGVTDLPKGAQIQIEAIAGNAEGTPPIG | not soluble |
| LVGDFERELGRLLSPFELEDLQKTLQEDQTDPDIVRAALREAVFNGKTSWNYINAILRNWRREGLTTLRQIEERKQAREDNQMKDLAISDDFKNAMNLWE | not soluble |
| MLIVLSLGGSILAKNLDPDRFLKYANALRDISKKHTLLVVTGGGEAARDYIGAARAMGADEVTCDYIGIEITRLNARLLISALGHDAYPEIPSNYPEASKAMTSGKVVVMGGVTPGQTTDAVASILAEYLRADLLTIATSIDGVYSSDPNCDPCAVKYEKISPEKLINIVMAIEMKAGSKSPVDPVAAKIIERCKLDALVMDARNPDLLVEVICGEAAKKSPVSCGTWITAKKMAGDPLEHHHHHH | soluble |
| MSDASKRAAFDQYGHAGVDPSMGGGGAGFGGANFSDIFGDVFSDFFGGGGRGGGRGGAQRGSDLRYTLELNLEEAVRGTTVSIRVPTLVNCQPCDGSGAKKGSTPSTCPTCGGIGQVRMQQGFFSVQQTCPRCHGQGKIITDPCTSCHGEGRVEEYKTLSVKVPAGVDTGDRIRLSGEGEAGTHGGPTGDLYVVISVREHEIFQRDGKHLYCEVPISYTDAALGGELEVPTLDGRVKLKIPEGTQTGKQFRLRGKGVAPVRGGGAGDLLCRVAVETPVNLSRRQRELLEELRDSLEGDSSHSPKASGWFDGVKRFFGDLLEHHHHHH | not soluble |
| SNHFGNHCTNTSGVVCHNNYNCTIDNSIHYADTRGVVSHHRENITGHHGLVFPAATMNGYGPATSFPDMRENGHLMVNQNRPVTLRPSMSQQQPQPQPLSDEYNKVETGTAEQVYVPSRD | soluble |
| VICHGDFAPYNVALNGNQTVGIFDFDTAHPAPRLWDIAYAVYCWAPFKTNEYDALGDLNSQSARAKLFCDSYGLSNAEREKL | not soluble |
| MSLISIVVLYYSRHGSTQALARQIARGVESVEGCQALLRTVAELDGTASNSDPYLSLDELKQCDGLALGSPVWFGNMAAPLKHFWDQTTPLWLSGALIDKPACVFTSSSTLHGGQETTQQSMMLPLLHHGMLILGIPYSEPALHTTQSGGTPYEGHHHHHH | not soluble |
| MFLSVFELFKIGIGPSSSHTMGPMTAANMFLREIMRCNFLRSSHTGISHIRVYLYGSLAFTGVGHATDRAVILGLLGEEAATVNPDNIDILLEKVTREKKVQPDGHPAYWFNLQSDLIFKRKEVLPGHTNGLAFEGLDADGNVLLRQTYYSIGGGFVVTEDELNCINGNTQSKTSKVPYPFDSARKMLSMAEKSGLSIAEMKRLNEETKMERSALNTGLDNIFSAITKCIDRGLSQEGELPGGLRVSRRAKKLYETLLENQKKNRNYPLLANDWLSVYAIAVNEENAAGGRVVTAPTNGAAGVVPAVLRYYLQFNDNSDQEGIHNFLLTAAAIGGVIKHNASISGAEVGCQGEVGTASSMAAAGLTAVLGGTPAQIENAAEIALEHHLGMTCDPVAGLVQIPCIERNAMGAVKAVTASSLALHGNGKHFVSLDACIETMRQTGHDMSERYKETSKAGLAVNAISC | not soluble |
| MTTAKPNTVEQFEHVIDICREVFQKKLHDYGASWRVMRPSSLTDQLYIKANRIRNIQMKGLSKVDEGVESEFIGVVNYGVIALIQLELGVADTPKMETEEALRLYDLKIREAMSLMLDKNHDYGEAWRQMRVSSFADLILTKVFRTKEIEDLGGDTYISEGVDANYMDMINYAIFALIQLNG | not soluble |
| MSETRRNQSSDEQIEKSEIQHQRVVIENSHGEKLVGVLHDTGSTETVVICHGFRSSKNRIPMLTIASFFERAMISSFRFDFAGNGESQGSFQYGNYRREVEDLRSVLQHLRGVNRVISAIIGHSKGGNVVLLYAAKYNDVQTVVNISGRFFLDRGIEFRLGKDYFKRIKDNGFIDVSNRKGKFEYRVTEESLMDRLTTNAHEACLSIRENCRVLTVHGSNDRIVHVTEASEFAKQIKNHKLYVIEGADHEFTSHQHQLASIVLSFFKLDPKKDDESGDISTSNQDSMRSVVPITSRI | soluble |
| MEGLKLSEAELMIFIHPSQSRNVFQGICRELSSLLFQYNETFDGVLLAYDATVKSKQAKILTGLHPYFGVRVNTRLLLFDPKPKSFVEGKIVKISPESIHVIVLGFSAAVITDVDIREEFKYRVRDGEGSFVSRSHKRHALKLGTMLRLQVQSFDEEVMHIAGSLLPENTGCVKWLEKKSEEALPTDRDHKRRKLA | not soluble |
| MPMNRLISHIERSISIHKCVVVPSLGGFVAELLPACYDRDDNLIYPPKEELRFNAALSLRDGILEDSYARAYGISHRRARVMLDDDVRTLRAELVRAGRVSLEKMGELTLNPEGQISYSHRSEAEEGSGFSYGLAPCSLPRLAESFDEARPFAEREKEALSVGRSDYFYLKIHKRTGMMAAAAVMSAVLLVVPWGQISSSDKFAASFVPTELTAKSVWKDTEARPVQVVTAKPASVATTADSQPIEATASKPAESPNQLSTDVAEGGVPVMHEPVGSKCYYVVVGTFDTKKKAQEFYRMSIDKAIMPNAVVLLSSNKARIYSDRFATADEAQTYIRSMKDKHRLFADAWVYAGR | not soluble |
| MGSDKIHHHHHHMKEAKKIDISKLKTGFLGKFPSHQLSRILSSEPDRLTEPEFLAKALKENKYVPYYYINVRENPTSIKIYRYVTKISNRDNDIDEVKNKFDSFLYGKSIVILDEVDFLQDYDVLYHITRHTKANLILLTQKVYWYMDTNDESVKSSLQPDHIVFYEYSSDEIREILKMRADEGLNKYDPDSLGLLSAMLVRNYRSDARIGIKALEIIGRMNEWDDDSVRTALKQAYVEVEGETLKNLGDRDLLILAALIKNQDTNRAYSEVSASSNLLLRGVSKSTFF | not soluble |
| MGSDKIHHHHHHMSINSREVLAEKVKNAVNNQPVTDMHTHLFSPNFGEILLWDIDELLTYHYLVAEVMRWTDVSIEAFWAMSKREQADLIWEELFIKRSPVSEACRGVLTCLQGLGLDPATRDLQVYREYFAKKTSEEQVDTVLQLANVSDVVMTNDPFDDNERISWLEGKQPDSRFHAALRLDPLLNEYEQTKHRLRDWGYKVNDEWNEGSIQEVKRFLTDWIERMDPVYMAVSLPPTFSFPEESNRGRIIRDCLLPVAEKHNIPFAMMIGVKKRVHPALGDAGDFVGKASMDGVEHLLREYPNNKFLVTMLSRENQHELVVLARKFSNLMIFGCWWFMNNPEIINEMTRMRMEMLGTSFIPQHSDARVLEQLIYKWHHSKSIIAEVLIDKYDDILQAGWEVTEEEIKRDVADLFSRNFWRFVGRNDHVTSVKVEQQT | not soluble |
| MRPKKDGLEDFLRLTPEIKKQLGSLVSDYCNVLNKEFTAGSVEITLRSYKICKAFINEAKAHGREWGGLMATLNICNFWAILRNNRVRRRAENAGNDACSIACPIVMRYVLDHLIVVTDRFFIQAPSNRVMIPATIGTAMYKLLKHSRVRAYTYSKVLGVDRAAIMASGKQVVEHLNRMEKEGLLSSKFKAFCKWVFTYPVLEEMFQTMVSSKTGHLTDDVKDVRALIKTLPRASYSSHAGQRSYVSGVLPACLLSTKSKAVETPILVSGADRMDEELMGNDGGASHTEARYSESGQFHAFTDELESLPSPTMPLKPGAQSADCGDSSSSSSDSGNSDTEQSEREEARAEAPRLRAPKSRRTSRPNRGQTPCPSNAAEPEQPWIAAVHQESDERPIFPHPSKPTFLPPVKRKKGLRDSREGMFLPKPEAGSAISDVFEGREVCQPKRIRPFHPPGSPWANRPLPASLAPTPTGPVHEPVGSLTPAPVPQPLDPAPAVTPEASHLLEDPDEETSQAVKALREMADTVIPQKEEAAICGQMDLSHPPPRGHLDELTTTLESMTEDLNLDSPLTPELNEILDTFLNDECLLHAMHISTGLSIFDTSLF | not soluble |
| MRNFTRTLEPEGITEMPQEGLRFVVQHHLARRDHYDLRLEWDGAMLSWAVPKGPSYNTWDKRLAVQVEDHPLEYRHFEGTIPKGEYGGGVVMLWDEGFWEPYVDVDGGLHEGMLKFVLKGRRLKGRWALVRMKGKAGDKKDNWLLLKEKDDYVQTADGISQFTTSLEHHHHHH | soluble |
| MSLNIYRAASVLIDEAGKNDFEISLLGKVNDLVYDTKNEYLYAVSQKGLLAKLNASNGDVIWRQSIAPETSQLNYNPVTNFIITVDKDYLYIWNSKNGILDRKIELADGKGKLFEVNKGFVYLNPHTRKFIELDLQASFSISIERDLQLDAISFLTYAEKNYVLFKRDGQFVLQALDHNYAVYGPETVLNVPENAQLLVTEKDVIIYSSNGVIYGIHVSMADISQLLIDEYKTFEWSSIPGKRHGYSITVDSQSTPVTYLFVIIDSEFVLIDEYIHEDTEALGYIHMEDNQTFSRVFAVANQIKFAPATVITIPNQLSRPVFRLFTFAEGEISAIVILDDGTFFSFSNTELVWKREEALAYAINPSILPTTLLTSYQKSIQDEENSSEGHHHHHH | soluble |
| MTQFDKQYNSIIKDIINNGISDEEFDVRTKWDSDGTPAHTLSVISKQMRFDNSEVPILTTKKVAWKTAIKELLWIWQLKSNDVNDLNMMGVHIWDQWKQEDGTIGHAYGFQLGKKNRSLNGEKVDQVDYLLHQLKNNPSSRRHITMLWNPDELDAMALTPCVYETQWYVKHGKLHLEVRARSNDMALGNPFNVFQYNVLQRMIAQVTGYELGEYIFNIGDCHVYTRHIDNLKIQMEREQFEAPELWINPEVKDFYDFTIDDFKLINYKHGDKLLFEVAV | soluble |
| MLDNRPIGVFDSGIGGLTIVKNLMSILPNEDIIYFGDIARIPYGTKSRATIQKFAAQTAKFLIDQEVKAIIIACNTISAIAKDIVQEIAKAIPVIDVITAGVSLVDNLNTVGVIATPATINSNAYALQIHKKNPNIEVYSNPCGLFVSMIEEGFVSGHIVELVAKEYLSYFHDKNIQALILGCTHYPIIKESIAKILDVKLIDPSLQASKMLYSLLFENKLLNTTKSNPEYRFYVTDIPLKFRSVGEMFLQTEMQHLEIVSLDSY | not soluble |
| MGSDKIHHHHHHMANKIKVLLTGAGSTLGREILAQLLTMRKVFEISVLDIKRGHTMAFFEKYKKEIHIFYGDCSVQDNTVEACKGQDFVIHCQSLEKANADKRLRLAEDVNTMGTRYIIENLERFSPGAYLLYISTVGVYGDRLKAPMISADNMTCPSMGDYDALTKLQAEKLVQESSLEWTIYRPGIILGHDSSLLNSSVFCMPLATRFETVHIRDLASACVKAYDHKASLWGRTYNVGGGEACRIVYSDYIRRLFKLLGLGYPEFPDRAFATRNRFGGYFADGDALEAILHFRRHTIEDYFKELAAQQPILKKLANKIFVGVQRKSLEGKSAPLRAIKENDRAKKKYYF | not soluble |
| ETMVGSFRDTTDKWLSQRLAADIYIYPTNNSAGRMSAWLQDQPEVESVWWRWEKDVPTEHGALQVVSTGPSEGELDSLTVKLGVPNYWYQLHQTKSLMVSESMALKLDIRPGDYIDLQAPLGEGWQVVGVYYDYGNPYNQVMMSHRN | not soluble |
